Data on one substance can be found in paper PMC6158212.

Usually stoichiometry N stands for a count of units in the complex or per binding partner.

The assay has as its target GP ectodomain of EBOV strain Mayinga-76 with a deleted mucin-like domain (EBOV GPΔMuc) (Zaire EBOV strain Mayinga-76). The assay is described as follows: crystal structure.

For the substance “GP ectodomain of EBOV strain Mayinga-76 with a deleted mucin-like domain (EBOV GPΔMuc) (complex)”, the stoichiometry N amounted to 3.
